# Changes are numbered by the printed parent chain.
# B1: v29452 humanized anti-NaPi2b antibody (H1L3) (antibody, human IgG1, kappa, V domains shown)
# VH: QVQLVQSGAEVKKPGASVKVSCKASGFTFTSYNVHWVRQAPGQGLEWMGAISPGNGDLSYAQKFQGRVTMTRDTSTSTVYMELSSLRSEDTAVYYCARGRTGMGAVDYWGQGTLVTVSS
# VL: DVQMTQSPSSLSASVGDRVTITCRASQDVYSYLNWYQQKPGKAVKLLIYYTSRLQSGVPSRFSGSGSGTDYTLTISSLQPEDIATYYCQQYNIFPWTFGQGTKLEIKR
# B2: v29456-DL1, v29456 conjugated to MC-GGFG-AM-DXd1 (DAR 8) (antibody, human IgG1, kappa)
# heavy: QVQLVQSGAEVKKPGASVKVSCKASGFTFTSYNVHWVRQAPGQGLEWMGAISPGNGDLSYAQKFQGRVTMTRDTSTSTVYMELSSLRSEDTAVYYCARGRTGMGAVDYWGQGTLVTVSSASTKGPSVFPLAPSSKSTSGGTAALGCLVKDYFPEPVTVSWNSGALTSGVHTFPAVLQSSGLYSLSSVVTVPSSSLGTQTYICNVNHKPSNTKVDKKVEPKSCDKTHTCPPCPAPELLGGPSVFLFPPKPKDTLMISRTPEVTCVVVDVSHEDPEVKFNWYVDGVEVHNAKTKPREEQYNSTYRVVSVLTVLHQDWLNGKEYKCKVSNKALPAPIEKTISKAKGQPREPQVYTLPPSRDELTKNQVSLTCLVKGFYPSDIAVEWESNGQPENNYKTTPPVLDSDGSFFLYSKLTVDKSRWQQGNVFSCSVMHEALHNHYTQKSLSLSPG
# light: DVQMTQSPSSLSASVGDRVTITCRASQDVYSYLNWYQQKPGKAVKLLIYYTSRLQSGVPSRFSGSGSGTDYTLTISSLQPEDFATYYCQQYNIFPWTFGQGTKLEIKRTVAAPSVFIFPPSDEQLKSGTASVVCLLNNFYPREAKVQWKVDNALQSGNSQESVTEQDSKDSTYSLSSTLTLSKADYEKHKVYACEVTHQGLSSPVTKSFNRGEC
# modifications: MC-GGFG-AM-DXd1 (DL1) on cysteines freed by reduction; positions not given; MC-GGFG-AM-DXd1 (DL1) on cysteines freed by reduction; positions not given; DAR 8 for the whole antibody
# notes: also called v29456-MC-GGFG-AM-DXd1
# B3: v29456-DL2, v29456 conjugated to MT-VC-Compound 1 (DAR 4) (antibody, human IgG1, kappa)
# heavy: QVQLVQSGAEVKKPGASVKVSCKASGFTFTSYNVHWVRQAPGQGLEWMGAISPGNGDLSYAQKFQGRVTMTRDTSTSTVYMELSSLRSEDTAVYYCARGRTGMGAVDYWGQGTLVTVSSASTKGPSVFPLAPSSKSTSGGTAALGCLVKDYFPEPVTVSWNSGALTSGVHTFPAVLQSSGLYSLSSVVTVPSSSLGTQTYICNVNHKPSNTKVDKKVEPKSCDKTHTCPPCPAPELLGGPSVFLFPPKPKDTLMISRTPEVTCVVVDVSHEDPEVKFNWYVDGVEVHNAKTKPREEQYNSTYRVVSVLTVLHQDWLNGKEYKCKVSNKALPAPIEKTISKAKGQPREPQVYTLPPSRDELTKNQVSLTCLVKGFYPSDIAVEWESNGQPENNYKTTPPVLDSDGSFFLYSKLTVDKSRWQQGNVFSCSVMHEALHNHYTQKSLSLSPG
# light: B2 light
# modifications: MT-VC-Compound 1 (DL2) on cysteines freed by reduction; positions not given; MT-VC-Compound 1 (DL2) on cysteines freed by reduction; positions not given; DAR 4 for the whole antibody
# notes: also called v29456-MT-VC-Compound 1
# B4: v18992-DL2, MX35 conjugated to MT-VC-Compound 1 (DAR 3) (antibody, human IgG1, kappa)
# heavy 1: GQVQLVQSGAEVVKPGASVKMSCKASGYTFTGYNIHWVKQAPGQGLEWIGAIYPGNGDTSYKQKFRGRATLTADTSTSTVYMELSSLRSEDSAVYYCARGETARATFAYWGQGTLVTVSSASTKGPSVFPLAPSSKSTSGGTAALGCLVKDYFPEPVTVSWNSGALTSGVHTFPAVLQSSGLYSLSSVVTVPSSSLGTQTYICNVNHKPSNTKVDKKVEPKSCDKTHTCPPCPAPELLGGPSVFLFPPKPKDTLMISRTPEVTCVVVDVSHEDPEVKFNWYVDGVEVHNAKTKPREEQYNSTYRVVSVLTVLHQDWLNGKEYKCKVSNKALPAPIEKTISKAKGQPREPQVYVYPPSRDELTKNQVSLTCLVKGFYPSDIAVEWESNGQPENNYKTTPPVLDSDGSFALVSKLTVDKSRWQQGNVFSCSVMHEALHNHYTQKSLSLSPG
# heavy 2: not shown
# light: GDIQMTQSPSSLSASVGDRVTITCSASQDIGNFLNWYQQKPGKTVKVLIYYTSSLYSGVPSRFSGSGSGTDYTLTISSLQPEDFATYYCQQYSKLPLTFGQGTKLELKRTVAAPSVFIFPPSDEQLKSGTASVVCLLNNFYPREAKVQWKVDNALQSGNSQESVTEQDSKDSTYSLSSTLTLSKADYEKHKVYACEVTHQGLSSPVTKSFNRGEC
# modifications: MT-VC-Compound 1 (DL2) on cysteines freed by reduction; positions not given; MT-VC-Compound 1 (DL2) on cysteines freed by reduction; positions not given; DAR 3 for the whole antibody
# notes: also called MX35 Compound 1 ADC; MX35-DL2 ADC
# B5: v36123, monovalent format of humanized antibody variant 29452 (antibody, V domains shown)
# VH: B1 VH
# VL: DVQMTQSPSSLSASVGDRVTITCRASQDVYSYLNWYQQKPGKAVKLLIYYTSRLQSGVPSRFSGSGSGTDYTLTISSLQPEDIATYYCQQYNIFPWTFGQGTKLEIK
# notes: Only said to be the monovalent format of v29452; also called v36123 (VH1/VL3)
# B6: v36124, monovalent format of humanized antibody variant 29456 (antibody, V domains shown)
# VH: B1 VH
# VL: B5 VL with I83F
# notes: Only said to be the monovalent format of v29456; also called v36124 (VH1/VL2)
# Columns and labels:
# [1] = target: T1, KLH (Sigma-Aldrich, H8283); assay: non-specific binding ELISA, KLH coated at 5 µg/mL, antibody at 100 nM
# T1 construct: also called keyhole limpet hemocyanin
# Description: NS-ELISA was carried out in Corning®96-well EIA/RIA Easy Wash™ Clear Flat Bottom Polystyrene High Bind Microplate coated overnight at 4° C. with 50 μL of Heparin (Sigma, H3149) diluted with 50 mM sodium carbonate pH 9.6 to a final concentration of 250 μg/mL. The plate was incubated for 2 days at room temperature, wells that were coated with heparin were not covered to allow air dry. […] 50 μL each of insulin, KLH, dsDNA and ssDNA were added to a 96 well plate, followed by the incubation at 37° C. for 2 h. The coating materials were removed, and the plate was blocked with 200 μL of Gibco™ PBS pH7.4, 0.1% Tween®20, and incubated for 1 h at room temperature with shaking at 200 rpm. The plate was washed 3 times with Gibco™ PBS pH7.4, 0.1% Tween 20. […] Reactions were stopped after approximately 10 minutes by adding 100 μL of 1 M HCl to each well, and absorbance was read at 450 nm. Binding scores were calculated as the ratio of the ELISA signal of the antibody (antibody-treated) to the signal of a well containing buffer instead of the primary antibody (untreated). The cutoffs considered for each binding molecule (ssDNA, KLH, insulin, dsDNA and heparin) were internally calculated, based on the average of Zymeworks Inc. produced antibodies and antibodies benchmarks published in the literature.
# [2] = target: T2, human sodium-dependent phosphate transporter 2B (NaPi2b) (human, UniProt O95436 1-690); assay: flow cytometry, IGROV-1 cells (endogenous NaPi2b), 24 h at 4 °C
# T2 construct: UniProt ID is given as 095436 [sic]; also called hNaPi2b; Hu NaPi2b
# T2 sequence: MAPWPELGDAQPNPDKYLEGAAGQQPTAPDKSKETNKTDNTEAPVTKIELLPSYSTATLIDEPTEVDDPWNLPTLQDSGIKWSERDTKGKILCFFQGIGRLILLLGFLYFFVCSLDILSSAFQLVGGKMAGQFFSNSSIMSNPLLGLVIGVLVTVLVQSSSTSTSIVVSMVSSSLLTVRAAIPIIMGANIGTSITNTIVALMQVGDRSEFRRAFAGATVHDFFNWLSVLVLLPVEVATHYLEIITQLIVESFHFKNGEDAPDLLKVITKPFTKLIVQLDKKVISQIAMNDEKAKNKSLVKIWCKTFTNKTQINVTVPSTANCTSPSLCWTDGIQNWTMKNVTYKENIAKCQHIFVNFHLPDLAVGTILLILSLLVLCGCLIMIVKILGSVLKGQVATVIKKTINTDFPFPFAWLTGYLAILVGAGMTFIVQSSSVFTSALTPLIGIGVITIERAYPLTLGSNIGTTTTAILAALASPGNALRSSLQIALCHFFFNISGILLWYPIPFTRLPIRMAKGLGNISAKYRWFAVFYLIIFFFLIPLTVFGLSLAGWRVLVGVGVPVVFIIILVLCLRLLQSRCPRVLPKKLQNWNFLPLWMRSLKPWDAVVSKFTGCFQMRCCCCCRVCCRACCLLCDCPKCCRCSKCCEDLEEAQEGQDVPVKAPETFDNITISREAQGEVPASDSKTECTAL
# Description: (§1) IGROV-1 cells express endogenous NaPi2b at a high level.
# (§2) Briefly, cells were seeded at 50,000 cells/well in conical-bottom 96-well plates and treated with test antibody for 24 hours at 4° C. to prevent internalization. […] Following incubation, cells were washed and stained with anti-Human IgG Fc AF647 conjugate (Jackson Immuno Research Labs, West Grove, PA; Cat. No. 109-605-098) at 4° C. for 30 min. Following incubation and washing, fluorescence was detected by flow cytometry on a BD LSRFortessa™ Cell Analyzer (BD Biosciences, Franklin Lake, NJ) with 1,000 minimum events collected per well. The AF647/APC-A GeoMean (fluorescence signal geometric mean, proportional to anti-Human AF647 binding) was calculated for the live cell population using FlowJo™ Version 10.8.1 (BD Biosciences, Franklin Lake, NJ) and plotted for each test antibody using GraphPad Prism Version 9 (GraphPad Software, San Diego, CA).
# [3] = target: T2, human sodium-dependent phosphate …; assay: flow cytometry, IGROV-1 cells (endogenous NaPi2b), 24 h at 4 °C; apparent Kd
# Description: as §1, §2
# [4] = target: T2, human sodium-dependent phosphate …; assay: cell-based or functional assay
# [5] = target: T2, human sodium-dependent phosphate …; assay: flow cytometry, IGROV-1 cells (endogenous NaPi2b); apparent Kd
# Description: (§3) Briefly, HEK293-6e cells were transfected for ˜24 hours to transiently express human NaPi2b, cynomolgus or mouse NaPi2b, at 1 μg of DNA per 1 million cells. Following transfection, 50,000 cells per well were seeded in V-bottom 96-well plates and incubated with 200 nM of primary antibody for 18-24 hours at 4° C. to prevent internalization. Post-incubation, cells were washed and stained with anti-Human IgG Fc AF647 conjugate (Jackson Immuno Research Labs, West Grove, PA, Cat. No. 109-605-098, Lot. No. 124868) at 4° C. for 1 hour. Following staining and washing, fluorescence was detected by flow cytometry on BD LSRFortessa™ Cell Analyzer (BD Biosciences, Franklin Lake, NJ) with 10,000 minimum events collected per well. The AF647/APC-A GeoMean (fluorescence signal geometric mean, proportional to anti-Human AF647 binding) was calculated for the live singlet cell population for each primary antibody using FlowJo™ v8 software (BD Biosciences, Franklin Lake, NJ). The Bmax and Kd of each primary antibody were calculated using GraphPad Prism Version 9 (GraphPad Software, San Diego, CA)
# (§4) The ability of ADCs to bind to cells expressing NaPi2b was assessed. […] Binding to endogenous high NaPi2b-expressing cell lines IGROV-1 and HCC-78 was assessed by flow cytometry according to methods described in Example 5.
# [6] = target: T2, human sodium-dependent phosphate …; assay: flow cytometry, HCC-78 cells (endogenous NaPi2b); apparent Kd
# Description: as §3, §4
# [7] = target: T2, human sodium-dependent phosphate …; assay: flow cytometry, HCC-78 cells (endogenous NaPi2b)
# Description: as §3, §4
# [8] = target: T2, human sodium-dependent phosphate …; assay: flow cytometry on IGROV-1 cells (endogenous NaPi2b), 4 C, anti-human IgG Fc AF647 detection
# Description: as §3, §4
# [9] = target: T2, human sodium-dependent phosphate …; assay: flow cytometry, IGROV-1 cells (endogenous NaPi2b)
# Description: as §3, §4
# [10] = target: T2, human sodium-dependent phosphate …; assay: flow cytometry on HCC-78 cells (endogenous NaPi2b), 4 C, anti-human IgG Fc AF647 detection
# Description: as §3, §4
# [11] = target: T2, human sodium-dependent phosphate …; assay: flow cytometry on IGROV-1 cells (endogenous NaPi2b), 24 h at 4 C, anti-human IgG Fc AF647 detection
# Description: as §1, §2
# [12] = target: T2, human sodium-dependent phosphate …; assay: KinExA, IGROV-1 cells (endogenous NaPi2b) as titrant, monovalent antibody constant at 50 and 500 pM, N-curve analysis
# Description: (§5) The cell-binding assay was set up using the antibody constructs or variants as constant binding partner at two different concentrations of 50 pM and 500 pM. For the titration curve with antibody variants fixed at 50 pM, at least 10 million IGROV-1 cells were used as titrant. For the titration curve with antibody variants fixed at 500 pM, at least 5 million cells were used as titrant. The antibody variants and cells were mixed in PBS pH 7.4, 1 mg/mL BSA, 0.2% NaN₃ and incubated at 4° C. for 7 days with gentle rotation until equilibrium was reached. After incubation, the mixture of antibody variants and cells was centrifuged to separate the cells from the unbound free antibody variants. The free antibody variants were loaded onto the KinExA 3200 (Sapidyne, Boise, Idaho) with biotinylated—anti-human IgG PMMA as solid phase and 0.5 μg/mL of Alexa 647 goat anti-human IgG (Jackson ImmunoResearch, West Grove, PA) as detection antibody.
# (§6) N-curve analysis was used to calculate the affinity and receptor expression level with the concentrations of antibody variant as reference point.
# [13] = target: T2, human sodium-dependent phosphate …; assay: KinExA, IGROV-1 cells, monovalent format
# Description: The binding affinity of anti-NaPi2b antibody constructs was assessed by Kinexa in the endogenous NaPi2b-expressing cell line, IGROV-1.
# as §5, §6
Binder,Bmax (MFI) [2],Kd [3],"In vitro cytotoxicity EC50 (nM), HCC-78 [4]","In vitro cytotoxicity EC50 (nM), IGROV-1 [4]",Kd [5],Kd [6],Bmax [7],Bmax (MFI) [9],"In vitro cytotoxicity EC50 (nM), OVCAR-3 [4]",Kd [12],fold lower binding affinity than chimeric parental antibody construct (v29814) [13],further results
B1,47800 MFI,1.6 nM,–,–,–,–,–,–,–,–,–,NS-ELISA binding score (ratio of signal between antibody-treated and untreated) [1]: 1.34 ratio
B2,–,–,0.51 nM,1.14 nM,0.67 nM,2.27 nM,21800,77000 MFI,–,–,–,EC50 (read off the curve) [8]: ~0.7 nM
B3,–,–,0.06 nM,0.08 nM,0.77 nM,2.32 nM,20400,81400 MFI,0.01 nM,–,–,EC50 (read off the curve) [10]: ~2 nM
B4,41200 MFI,1.22 nM,0.13 nM,0.11 nM,–,–,–,–,0.02 nM,–,–,EC50 (read off the curve) [11]: ~1 nM
B5,–,–,–,–,–,–,–,–,–,0.297 nM,~2 fold,–
B6,–,–,–,–,–,–,–,–,–,0.283 nM,~2 fold,–

# Reference: US20250277030A1 (Zymeworks, published 2025)
